Here are results for 84 variants from the RNAGym collection of RNA variant scans (doi:10.1073/pnas.2313332121).

The chains are these.
B1: TPR t1 (parent)
chain: GACCAAUCUGCCCUCAGAGCUCGAGAACAUCUUCGGAUGCAGAGGAGGCAGGCUUCGGUGGCGCGAUAGCGCCAACGUCCUCAACCUCCAAUGCAUCCCACCACAUGAUGAUGCCUGAAGAGCCUUGGUUUUUUG

Variants of B1 are the subject of this series. The experiment in a line: polymerase ribozyme fitness, log enrichment relative to wild type (log ratio); higher = more active; in vitro selection for triplet polymerase activity. Summed up:
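PCR was used to build mutant libraries for each subunit of a heterodimeric triplet polymerase ribozyme, which were then transcribed. A single in vitro selection round, in triplicate, used a frozen incubation at −7 °C and recovered extended constructs by gel excision, streptavidin beads and RT-PCR. Fitness is the logarithm of genotype enrichment relative to wild-type enrichment, averaged over replicates with inverse-variance weights. The logarithm is base 2, and after Illumina sequencing only genotypes with ≥10 input reads and ≥1 read per output were kept.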
For G77C G120C, the “polymerase ribozyme fitness (log ratio)” value is 0.526.
Under C79A G120C stands 0.837.
As for G77C U78C A105G A119G, the figure is -1.64; as for U78C C82U C123G G127C, -1.21.
Under C80G G110C stands -6.58; under C79A G93A, -1.37; under C80A C115U, -4.97.
Take C80A A95U C114U C124U: the “polymerase ribozyme fitness (log ratio)” value is -7.55.
As for C80A U81C, the figure is -4.02.
As for U78C C124U, the figure is 1.72; as for G77A G93A A100G U112C U131A, -2.12; as for C80A C97A G107U C115U, -7.92.
As for C80U C89G, the figure is -1.42; as for C79U C114U, -2.32.
With U78C C85G U106A, the “polymerase ribozyme fitness (log ratio)” value was -2.34.
Regarding C80U C115U, the “polymerase ribozyme fitness (log ratio)” value was -2.06.
Under C79G U131C stands -1.28.
In the case of C80A C94U, the “polymerase ribozyme fitness (log ratio)” value is -2.69.
Consider U78G G117C, for which the “polymerase ribozyme fitness (log ratio)” value was -4.47.
As for C79U G117A A119U, the figure is -4; as for C79A A105U, -4.41.
As for U78A C102A U112A, the figure is -1.54; as for C79U A111U A121U, -3.62.
As for U78A C94G A118U G120C U132A, the figure is -0.124.
Regarding U78C A83C C89G, the “polymerase ribozyme fitness (log ratio)” value was -2.02.
Under U81A A95U C102G A103U G110C U125G stands -6.02; under C79A C124G, -0.697; under U81A A90G, -0.0144.
As for C79A A91G, the figure is -2.3.
As for U81A G93C, the figure is -2.88; as for U78G C79A A118G U130G, -2.19; as for U78C U96A, -0.969.
As to C80U C114U, the “polymerase ribozyme fitness (log ratio)” value is -2.33.
As for C80A A95G, the figure is -3.38; as for U78A C88U U96G U129A U131A, -2.62.
As for C79U A91C A100U, the figure is -3.6; as for C79G U112A, -1.41; as for C80U C115A G120A U125A, -1.71.
Under U78C U87A C98U stands -1.12.
Regarding C80U U96C, the “polymerase ribozyme fitness (log ratio)” value is -0.313.
Under C80U C94G stands -1.73; under U78A C104A C114A, -5.24.
Under C79A A119G stands -0.23; under G77U G117A, -1.62.
As for C79A C82G U112A, the “polymerase ribozyme fitness (log ratio)” value is -1.75.
As for C80U C88U, the figure is -0.555.
Under C80U C82U U96A stands -1.82; under U78A C114U, -1.83.
Consider U78C U81A A83G, for which the “polymerase ribozyme fitness (log ratio)” value is -0.944.
As for G77U G120A, the figure is -0.148.
Under G77U G120C stands 0.43; under U78G U87C, 0.411; under G77A G110A, -1.28.
As for G77A G110U, the figure is -1.1; as for C80U C88G C124U, -1.05; as for G77C C89U G110C G135A, -4.53.
As to U78C C89A, the “polymerase ribozyme fitness (log ratio)” value is -0.68.
As for U78A G113A, the “polymerase ribozyme fitness (log ratio)” value is -1.22.
As for U78A G113U, the figure is -3.98; as for C80U U92C, -2.1.
As for C80A A108G, the figure is -5.73; as for C79U G110A, -0.826.
As for C80U C101U, the figure is -0.367.
Consider C80U C101A, for which the “polymerase ribozyme fitness (log ratio)” value was -1.52.
In the case of C79A U106G, the “polymerase ribozyme fitness (log ratio)” value is -3.37.
Consider U78C C97G C104A, for which the “polymerase ribozyme fitness (log ratio)” value was -4.78.
As to U81A A83U C115A, the “polymerase ribozyme fitness (log ratio)” value is -1.27.
As for C79G, the figure is -1.54.
As for C79A, the figure is -1.04; as for C79U, -0.19.
As for C79U U92G C115G, the figure is -3.67; as for G77A U132C, -0.208.
Consider C80A G113C, for which the “polymerase ribozyme fitness (log ratio)” value is -5.5.
As for C80A G113A, the figure is -3.03; as for C80A A84C, -3.11.
Under C80A G117U stands -5.19; under C79A G113A C124G, -3.89; under C79A C94A G117U, -4.86.
As for U78C G120C, the figure is 0.45.
Regarding U78C G120U, the “polymerase ribozyme fitness (log ratio)” value was -0.256.
Under U81A A91C C97A A105G C123G stands -8.06; under U78C C94A, -0.785.
Under C79G A108G stands -3.63; under G77C A121U, 0.189.
